According to publication PMC4877046, “TrmBL2 from Pyrococcus furiosus Interacts Both with Double-Stranded and Single-Stranded DNA” (PLoS ONE, 2016):

Experiments:
TrmBL2 [1] = target: T1, TrmBL2 (Pyrococcus furiosus, UniProt Q8U3H1 1-264); test: magnetic tweezers (persistence length); conditions: half-coverage, Hill coefficient 3.0 +/- 0.33; EMSA: PBS, 10 nM DNA, 1 h, room temperature, 8% PAGE in PBS; magnetic tweezers: PBS pH 7.4, 5 mM NaN3, room temperature
T1 sequence: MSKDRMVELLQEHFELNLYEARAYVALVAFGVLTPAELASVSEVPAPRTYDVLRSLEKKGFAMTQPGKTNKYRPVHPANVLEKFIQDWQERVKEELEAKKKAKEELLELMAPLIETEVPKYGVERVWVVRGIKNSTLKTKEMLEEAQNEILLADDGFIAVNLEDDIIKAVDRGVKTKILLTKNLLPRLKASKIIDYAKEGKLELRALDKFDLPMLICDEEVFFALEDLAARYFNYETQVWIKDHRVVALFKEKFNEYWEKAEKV

TrmBL2 [2] = target: T1, TrmBL2; test: EMSA; apparent Kd, Hill fit, Hill coefficient 2.9 +/- 0.4; Fig 6 legend gives 2.0 uM; EMSA: PBS, 10 nM DNA, 1 h, room temperature, 8% PAGE in PBS; magnetic tweezers: PBS pH 7.4, 5 mM NaN3, room temperature; conditions: protein: recombinant; chain copies: 2; label: 5'-Cy5
TrmBL2 [3] = target: T1, TrmBL2; test: EMSA; apparent Kd, Hill fit, Hill coefficient 4.4 +/- 0.6; Fig 6 legend gives 1.0 uM; EMSA: PBS, 10 nM DNA, 1 h, room temperature, 8% PAGE in PBS; magnetic tweezers: PBS pH 7.4, 5 mM NaN3, room temperature; conditions: protein: recombinant; chain copies: 2; label: 5'-Cy5 on S1; blunt
[4] = target: the molecule itself; test: SEC; gel filtration on a 60 ml Superdex 200 column, 40 mM HEPES pH 7.5, 150 mM NaCl; last step of the purification

dsDNA tether for magnetic tweezers
K half (TrmBL2 [1]): 300 nM

B1: 60mer ssDNA (ssDNA)
DNA: GATATAATATACCTATATCAATGGCCTCCCACGCATAAGCGCAGATACGTTCTGAGGGAA
Kd (TrmBL2 [2]): 2.1 ± 0.1 µM

B2: 60mer dsDNA (dsDNA)
DNA 1: GATATAATATACCTATATCAATGGCCTCCCACGCATAAGCGCAGATACGTTCTGAGGGAA
DNA 2: TTCCCTCAGAACGTATCTGCGCTTATGCGTGGGAGGCCATTGATATAGGTATATTATATC
Kd (TrmBL2 [3]): 1.07 ± 0.03 µM

B3: TrmBL2 from Pyrococcus furiosus (natural protein, UniProt Q8U3H1 1-264, looked up)
chain: MSKDRMVELLQEHFELNLYEARAYVALVAFGVLTPAELASVSEVPAPRTYDVLRSLEKKGFAMTQPGKTNKYRPVHPANVLEKFIQDWQERVKEELEAKKKAKEELLELMAPLIETEVPKYGVERVWVVRGIKNSTLKTKEMLEEAQNEILLADDGFIAVNLEDDIIKAVDRGVKTKILLTKNLLPRLKASKIIDYAKEGKLELRALDKFDLPMLICDEEVFFALEDLAARYFNYETQVWIKDHRVVALFKEKFNEYWEKAEKV
notes: TrmBL2 (30.6 kDa) from Pyrococcus furiosus; This E. coli material is dimeric by gel filtration; also called archaeal "TrmB-like" protein TrmBL2; source: E.coli BL21 (DE3), purified (heating to 80°C, Q-Sepharose, Superdex 200)
stoichiometry N [4]: 2
